{
  "source": "patent US20050203007A1",
  "about": "(REGENTS OF THE UNIVERSITY OF MICHIGAN, published 2005)",
  "binders": {"B1": {"name": "Gly49-R4R1-eglin (Tyr49 to Gly) (designed binder)", "chain": "SMGSELKSFPEVVGKTVDQAREYFTLHYPQYDVYFLPEGSRVTRDLRGNRVRVFYNPGTNVVNHVPHVG", "notes": "tested as partially purified extract"}, "B2": {"name": "L1-eglin (other)", "chain": "B1 chain with R41P, R44L, G48Y", "notes": "Recombinant eglin with the natural reactive site loop; also called wild type eglin; wild type eglin (Leu45)"}, "B3": {"name": "Pro38Leu Tyr49Cys R4R1-eglin (designed binder)", "chain": "B1 chain with P37L, G48C", "notes": "as for B1"}, "B4": {"name": "Tyr49Cys-R4R1-eglin (designed binder)", "chain": "B1 chain with G48C", "notes": "N-terminal Met removed; also called the Cys variant"}, "B5": {"name": "V33D49-R4R1-eglin (designed binder)", "chain": "B1 chain with D32V, G48D", "notes": "N-terminal Met removed; also called Asp49Val33-R4R1-eglin-c"}, "B6": {"name": "R1-eglin (designed binder)", "chain": "B1 chain with R41P, G48Y", "notes": "also called Arg45-eglin c"}},
  "key": {"secreted, soluble furin [1]": {"molecular_target": "T1, secreted, soluble furin (human, UniProt P09958 108-715, limits assumed)", "T1 construct": "Secreted, soluble construct; also called human furin", "T1 sequence (P09958 108-715 limits assumed)": "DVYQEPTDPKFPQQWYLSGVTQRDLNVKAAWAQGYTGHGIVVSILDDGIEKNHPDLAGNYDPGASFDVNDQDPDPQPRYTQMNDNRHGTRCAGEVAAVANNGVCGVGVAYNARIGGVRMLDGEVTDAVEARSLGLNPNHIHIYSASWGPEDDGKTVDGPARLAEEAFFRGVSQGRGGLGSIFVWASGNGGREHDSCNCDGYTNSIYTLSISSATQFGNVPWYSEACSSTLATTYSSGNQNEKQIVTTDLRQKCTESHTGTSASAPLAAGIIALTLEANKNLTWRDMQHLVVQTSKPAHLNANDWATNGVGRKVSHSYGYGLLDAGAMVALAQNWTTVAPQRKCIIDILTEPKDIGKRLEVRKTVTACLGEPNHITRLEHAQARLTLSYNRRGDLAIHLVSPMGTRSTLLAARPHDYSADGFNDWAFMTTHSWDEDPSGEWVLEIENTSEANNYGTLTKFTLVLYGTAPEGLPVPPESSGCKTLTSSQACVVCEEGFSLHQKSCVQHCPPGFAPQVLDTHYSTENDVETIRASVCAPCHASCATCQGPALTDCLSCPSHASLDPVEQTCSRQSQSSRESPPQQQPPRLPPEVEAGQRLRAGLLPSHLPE", "test": "rapid inhibition assay; listed as potent inhibitor of furin", "protocol": "(§1) 5. Rapid protease inhibition assay. Novel eglin variants were diluted 50-fold and incubated with secreted, soluble furin (0.5 nM) for 15 min in 96-well plates. The furin substrate (Boc-Arg-Val-Arg-Arg-MCA) was added, and release of AMC was monitored continuously in a 96-well fluorescence plate reader for 20 min, as described under Example 1. […] The plasmid DNA encoding such eglin c variant inhibitors were isolated and sequenced."}, "subtilisin Carlsberg [2]": {"molecular_target": "T2, subtilisin Carlsberg (UniProt P00780 106-379)", "T2 sequence (looked up)": "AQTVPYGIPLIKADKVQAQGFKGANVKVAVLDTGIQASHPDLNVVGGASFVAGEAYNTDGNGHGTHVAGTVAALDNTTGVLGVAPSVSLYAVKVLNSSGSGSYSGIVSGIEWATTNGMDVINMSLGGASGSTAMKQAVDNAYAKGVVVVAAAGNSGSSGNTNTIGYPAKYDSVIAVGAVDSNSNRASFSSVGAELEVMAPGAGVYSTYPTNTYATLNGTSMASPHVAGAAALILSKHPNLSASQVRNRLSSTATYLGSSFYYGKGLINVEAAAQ", "test": "enzyme inhibition, standard assay conditions"}, "[3]": {"molecular_target": "T3, human neutrophil elastase (human, UniProt P08246 30-247)", "T3 sequence (looked up)": "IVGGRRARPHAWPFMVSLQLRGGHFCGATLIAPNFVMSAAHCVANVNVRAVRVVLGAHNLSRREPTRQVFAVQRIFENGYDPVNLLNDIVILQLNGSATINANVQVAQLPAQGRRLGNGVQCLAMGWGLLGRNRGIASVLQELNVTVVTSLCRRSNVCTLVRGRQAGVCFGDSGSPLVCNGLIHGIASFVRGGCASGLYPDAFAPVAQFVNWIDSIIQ", "test": "enzyme inhibition, standard assay conditions"}, "chymotrypsin": {"molecular_target": "chymotrypsin", "test": "enzyme inhibition, standard assay conditions"}, "secreted, soluble Kex2 [4]": {"molecular_target": "T4, secreted, soluble Kex2 (Saccharomyces cerevisiae, UniProt P13134 114-613, limits assumed)", "T4 construct": "Secreted, soluble construct; also called kexin", "T4 sequence (looked up)": "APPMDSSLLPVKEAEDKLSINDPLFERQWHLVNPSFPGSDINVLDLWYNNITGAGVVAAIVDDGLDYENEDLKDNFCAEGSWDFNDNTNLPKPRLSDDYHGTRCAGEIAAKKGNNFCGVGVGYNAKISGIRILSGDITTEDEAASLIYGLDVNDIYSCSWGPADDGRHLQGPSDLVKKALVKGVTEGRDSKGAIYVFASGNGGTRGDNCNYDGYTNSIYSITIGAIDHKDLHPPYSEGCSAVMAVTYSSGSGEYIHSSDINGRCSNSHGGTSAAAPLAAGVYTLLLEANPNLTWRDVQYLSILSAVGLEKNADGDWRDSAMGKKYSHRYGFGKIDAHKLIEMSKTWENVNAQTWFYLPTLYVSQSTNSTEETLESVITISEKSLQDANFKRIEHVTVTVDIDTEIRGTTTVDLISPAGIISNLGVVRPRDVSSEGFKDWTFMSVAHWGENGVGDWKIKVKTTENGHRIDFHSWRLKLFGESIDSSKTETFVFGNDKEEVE", "test": "equilibrium enzyme inhibition, fluorogenic substrate", "protocol": "(§2) Affinities of eglin variants with secreted, soluble Kex2 (hereafter “Kex2”; Brenner, C. and Fuller, R. S. (1992) Proc. Natl. Acad. Sci. USA 89: 922-926) and secreted, soluble furin (hereafter, “furin”; Bravo, D. A. et al (1994) J. Biol. Chem. 269: 25830-25837; and Komiyama & Fuller (2000) Biochemistry 39: 15156-15165) were measured by incubating variants with the enzymes (˜0.5 to 2.0 nM) for 45 min to 1 h at 21° C. in one of two enzyme assay buffers. For Kex2, the buffer was 200 mM Bistris (pH 7.27) containing 1 mM CaCl₂ and 0.1% Triton X-100; and for furin, the buffer was 20 mM NaMES (pH 7.0) containing 1 mM CaCl₂ and 0.1% Triton X-100 for furin. 100 to 200 μL aliquots of reaction mixtures were transferred into triplicate wells of opaque 96 well plates (Costar), and residual enzyme activity was measured with an fmax fluorescence micro plate reader (Molecular Devices) by monitoring hydrolysis of a fluorogenic substrate Boc-Arg-Val-Arg-Arg-MCA. Data were graphically analyzed (KaleidaGraph) with an equation developed by Green and Work (1953). Site-directed mutagenesis at P2 and P6 of eglin c generated temporary inhibitors (Table 3) and exhausted possibility to improve affinity further with this approach."}, "secreted, soluble furin [5]": {"molecular_target": "T1, secreted, soluble furin", "test": "equilibrium enzyme inhibition, fluorogenic substrate", "protocol": "as §2"}, "secreted, soluble furin [6]": {"molecular_target": "T1, secreted, soluble furin", "test": "rapid furin inhibition assay; table lists substitutions with equal or enhanced inhibition of furin relative to the template", "protocol": "3. Rapid screening of libraries. Libraries were introduced into E. coli BL21 (DE3) cells and individual, cloned transformants were grown by shaking at 37° C. in 200 μl LB containing […] kanamycin in 96-well, 0.45 μm GHP membrane filter plates (Gelman) (FIG. 2). When O.D. 600 values reached 0.4, 60 μl of culture were transferred to secondary 96-well plates (Falcon), adjusted to 10% glycerol, and stored at −80° C. These frozen stocks served as master copies of the libraries. IPTG was added to the cultures to a final concentration of 1 mM, and the cultures were allowed to express eglin c variants for one hour in the filter plate. Expressed eglin c variants were extracted from the cells with 50 mM Tris-HCl pH 8.0 containing 2 mM EDTA following freezing and thawing. These extracts were collected as filtrates by centrifugation of the filter plate above a second plate. The filtrates, representing partially purified eglin c variants, were analyzed using a rapid fluorescence-based assay for processing enzyme inhibition as described below in Section 5. […] Frozen cells were cultured in 50 to 100 ml culture volumes, and DNA maxipreps were performed; the DNA preparations were then sequenced by automated DNA sequencing. Selected variants were expressed and purified on a larger scale, and affinities for furin or Kex2 were examined quantitatively (see below).\nas §1"}, "secreted, soluble Kex2 [7]": {"molecular_target": "T4, secreted, soluble Kex2", "test": "rapid inhibition assay; listed as potent inhibitor of Kex2"}, "secreted, soluble Kex2 [8]": {"molecular_target": "T4, secreted, soluble Kex2", "test": "enzyme inhibition, purified variant; Kassoc"}, "secreted, soluble furin [9]": {"molecular_target": "T1, secreted, soluble furin", "test": "enzyme inhibition, purified variant; Kassoc"}, "human PC7": {"molecular_target": "T5, human PC7 (human, UniProt Q16549 142-667, limits assumed)", "T5 sequence (looked up)": "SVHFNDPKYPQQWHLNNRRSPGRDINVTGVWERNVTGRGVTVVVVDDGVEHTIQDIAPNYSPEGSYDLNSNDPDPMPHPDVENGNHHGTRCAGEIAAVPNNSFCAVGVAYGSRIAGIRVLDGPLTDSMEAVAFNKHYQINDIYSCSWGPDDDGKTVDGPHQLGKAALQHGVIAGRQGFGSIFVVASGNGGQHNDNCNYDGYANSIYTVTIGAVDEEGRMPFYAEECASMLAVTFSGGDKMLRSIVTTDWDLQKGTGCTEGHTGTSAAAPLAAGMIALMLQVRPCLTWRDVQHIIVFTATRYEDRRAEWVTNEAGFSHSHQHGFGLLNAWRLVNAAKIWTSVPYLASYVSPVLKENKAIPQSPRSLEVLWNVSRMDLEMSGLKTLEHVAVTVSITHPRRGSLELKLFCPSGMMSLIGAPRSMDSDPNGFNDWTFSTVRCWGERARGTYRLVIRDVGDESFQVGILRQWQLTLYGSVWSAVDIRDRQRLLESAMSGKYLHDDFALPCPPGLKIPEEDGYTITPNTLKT", "test": "enzyme inhibition, purified variant; Kassoc"}, "secreted, soluble furin [10]": {"molecular_target": "T1, secreted, soluble furin", "test": "ratio of affinities, enzyme inhibition"}, "human plasma kallikrein": {"molecular_target": "human plasma kallikrein (human, UniProt P03952 20-638)", "sequence (P03952 20-638 limits assumed)": "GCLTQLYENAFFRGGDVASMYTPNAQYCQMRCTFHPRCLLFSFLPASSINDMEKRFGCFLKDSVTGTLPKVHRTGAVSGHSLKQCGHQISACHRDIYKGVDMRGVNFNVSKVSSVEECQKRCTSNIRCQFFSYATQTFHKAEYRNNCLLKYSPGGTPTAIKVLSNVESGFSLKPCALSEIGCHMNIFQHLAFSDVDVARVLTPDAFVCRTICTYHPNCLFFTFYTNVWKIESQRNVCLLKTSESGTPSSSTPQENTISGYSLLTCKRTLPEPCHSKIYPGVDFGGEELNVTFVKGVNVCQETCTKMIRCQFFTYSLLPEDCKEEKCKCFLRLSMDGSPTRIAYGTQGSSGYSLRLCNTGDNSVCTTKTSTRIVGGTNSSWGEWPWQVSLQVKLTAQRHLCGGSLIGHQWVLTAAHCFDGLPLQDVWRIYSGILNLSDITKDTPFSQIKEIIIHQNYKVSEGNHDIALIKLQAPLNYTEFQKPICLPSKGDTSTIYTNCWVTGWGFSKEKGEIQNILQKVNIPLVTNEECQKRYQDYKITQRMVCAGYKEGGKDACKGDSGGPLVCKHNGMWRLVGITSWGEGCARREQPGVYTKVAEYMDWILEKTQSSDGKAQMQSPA", "test": "enzyme inhibition; weak inhibition"}, "human plasmin": {"molecular_target": "human plasmin (human, UniProt P00747 97-810, limits assumed)", "sequence (P00747 97-810 limits assumed)": "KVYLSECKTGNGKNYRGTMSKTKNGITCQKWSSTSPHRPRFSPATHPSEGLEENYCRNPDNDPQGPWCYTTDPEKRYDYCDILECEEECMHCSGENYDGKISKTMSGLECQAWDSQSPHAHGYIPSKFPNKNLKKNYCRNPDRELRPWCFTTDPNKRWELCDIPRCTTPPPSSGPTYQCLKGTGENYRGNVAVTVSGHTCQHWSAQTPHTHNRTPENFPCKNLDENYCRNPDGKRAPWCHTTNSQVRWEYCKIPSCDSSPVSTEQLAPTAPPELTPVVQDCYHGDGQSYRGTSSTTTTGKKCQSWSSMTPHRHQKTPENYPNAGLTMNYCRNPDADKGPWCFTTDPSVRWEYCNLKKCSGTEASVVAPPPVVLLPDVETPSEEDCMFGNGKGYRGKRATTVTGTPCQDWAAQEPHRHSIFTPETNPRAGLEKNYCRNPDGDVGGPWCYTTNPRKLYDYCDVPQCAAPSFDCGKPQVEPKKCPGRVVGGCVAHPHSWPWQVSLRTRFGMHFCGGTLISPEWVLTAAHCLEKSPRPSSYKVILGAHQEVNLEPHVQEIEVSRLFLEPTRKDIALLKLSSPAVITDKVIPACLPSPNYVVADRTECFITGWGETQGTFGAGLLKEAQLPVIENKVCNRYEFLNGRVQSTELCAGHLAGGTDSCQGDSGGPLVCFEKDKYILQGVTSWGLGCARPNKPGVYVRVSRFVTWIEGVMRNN", "test": "enzyme inhibition; weak inhibition"}, "secreted, soluble Kex2 [11]": {"molecular_target": "T4, secreted, soluble Kex2", "test": "equilibrium enzyme inhibition", "protocol": "(§3) Thus, R1-eglin refers to substitution of Arg at position P1.\n(§4) Affinities of eglin variants with secreted, soluble Kex2 (hereafter “Kex2”; Brenner, C. and Fuller, R. S. (1992) Proc. Natl. Acad. Sci. USA 89: 922-926) and secreted, soluble furin (hereafter, “furin”; Bravo, D. A. et al (1994) J. Biol. Chem. 269: 25830-25837; and Komiyama & Fuller (2000) Biochemistry 39: 15156-15165) were measured by incubating variants with the enzymes (˜0.5 to 2.0 nM) for 45 min to 1 h at 21° C. in one of two enzyme assay buffers. For Kex2, the buffer was 200 mM Bistris (pH 7.27) containing 1 mM CaCl₂ and 0.1% Triton X-100; and for furin, the buffer was 20 mM NaMES (pH 7.0) containing 1 mM CaCl₂ and 0.1% Triton X-100 for furin."}, "secreted, soluble furin [12]": {"molecular_target": "T1, secreted, soluble furin", "test": "equilibrium enzyme inhibition", "protocol": "as §3, §4"}, "subtilisin Carlsberg [13]": {"molecular_target": "T2, subtilisin Carlsberg", "test": "enzyme inhibition"}, "trypsin": {"molecular_target": "trypsin", "sequence (P00760 24-246)": "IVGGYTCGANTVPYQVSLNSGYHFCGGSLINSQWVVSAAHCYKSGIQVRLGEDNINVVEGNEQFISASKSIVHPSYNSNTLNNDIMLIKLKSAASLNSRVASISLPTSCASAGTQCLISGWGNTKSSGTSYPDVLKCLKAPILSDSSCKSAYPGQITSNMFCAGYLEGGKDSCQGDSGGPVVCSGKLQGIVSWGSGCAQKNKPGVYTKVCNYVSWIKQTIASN", "test": "enzyme inhibition"}},
  "note": "Where a chain is given by its changes, count along the chain named.",
  "data": [
    {"binder": "B1", "values": [
      {"measurement": "binding result", "setting": "secreted, soluble furin [1]", "value": "binds"}
    ]},
    {"binder": "B2", "values": [
      {"measurement": "Ka", "setting": "subtilisin Carlsberg [2]", "value": "6.7e+10", "unit": "M⁻¹"},
      {"measurement": "Ka", "setting": "[3]", "value": "4.5e+10", "unit": "M⁻¹"},
      {"measurement": "Ka", "setting": "chymotrypsin", "value": "1.1e+10", "unit": "M⁻¹"},
      {"measurement": "Ki", "setting": "secreted, soluble Kex2 [4]", "value": "~500", "unit": "µM"},
      {"measurement": "Ki", "setting": "secreted, soluble furin [5]", "value": 120, "unit": "µM"}
    ]},
    {"binder": "B3", "values": [
      {"measurement": "binding result", "setting": "secreted, soluble furin [1]", "value": "binds"}
    ]},
    {"binder": "B4", "values": [
      {"measurement": "binding result", "setting": "secreted, soluble furin [6]", "value": "binds"},
      {"measurement": "binding result", "setting": "secreted, soluble Kex2 [7]", "value": "binds"}
    ]},
    {"binder": "B5", "values": [
      {"measurement": "Ka", "setting": "secreted, soluble Kex2 [8]", "value": "2.4e+10", "unit": "M⁻¹"},
      {"measurement": "Ka", "setting": "secreted, soluble furin [9]", "value": "3.7e+09", "unit": "M⁻¹"},
      {"measurement": "Ka", "setting": "human PC7", "value": "8.7e+07", "unit": "M⁻¹"},
      {"measurement": "fold preference for furin over PC7", "setting": "secreted, soluble furin [10]", "value": 42, "unit": "fold"}
    ]},
    {"binder": "B6", "values": [
      {"measurement": "Ka", "setting": "human plasma kallikrein", "value": "~1e+06", "unit": "M⁻¹"},
      {"measurement": "Ka", "setting": "human plasmin", "value": "~1e+06", "unit": "M⁻¹"},
      {"measurement": "fold increase in affinity relative to L1-eglin", "setting": "secreted, soluble Kex2 [11]", "value": 10000, "unit": "fold"},
      {"measurement": "fold enhancement of affinity relative to L1-eglin", "setting": "secreted, soluble furin [12]", "value": "2 to 3", "unit": "fold"},
      {"measurement": "fold increase in affinity relative to L1-eglin", "setting": "secreted, soluble furin [12]", "value": 2.5, "unit": "fold"},
      {"measurement": "Ki", "setting": "secreted, soluble Kex2 [4]", "value": 0.03, "unit": "µM"},
      {"measurement": "Ki", "setting": "secreted, soluble furin [5]", "value": 53, "unit": "µM"},
      {"measurement": "Ka", "setting": "subtilisin Carlsberg [13]", "value": "1e+10", "unit": "M⁻¹"},
      {"measurement": "Ka", "setting": "trypsin", "value": "1.8e+10", "unit": "M⁻¹"}
    ]}
  ]
}
